Measurements reported in patent publication US20220119513A1 (ZOETIS SERVICES, published 2022).
Residue numbers refer to the chain shown, from its start. Names may count otherwise.

B1: Can-SL501-VH3 S112Q / Can-SL501-VL2 (antibody, V domains shown)
VH: EVQLVESGGDLVKPGGSLRLSCVASGFTFSSYGMHWVRQAPGKELEWVAVISYDGSIKYYADAVKGRFTISRDNAKNTLYLQMNSLRAEDTAVYYCARTGEYSGYDTDPQYQWGQGTTVTVSS
VL: EIVMTQSPGSLAGSAGESVSINCRASQGIGDDLGWYQQKPGERPKLLIYGTSTLQSGVPARFSSSGSGTDFTLTINNLQAEDVGDYYCLQDSNYPLTFGAGTK
B2: Can-SL501-VH3 Q110D / Can-SL501-VL2 (antibody, V domains shown)
VH: B1 VH with Q110D, Q112S
VL: B1 VL
B3: Can-SL501-VH3 Y111F / Can-SL501-VL2 (antibody, V domains shown)
VH: B1 VH with Y111F, Q112S
VL: B1 VL
B4: Can-SL501-VH3 Y111T / Can-SL501-VL2 (antibody, V domains shown)
VH: B1 VH with Y111T, Q112S
VL: B1 VL
B5: Can-SL501-VH3 Y111I / Can-SL501-VL2 (antibody, V domains shown)
VH: B1 VH with Y111I, Q112S
VL: B1 VL
B6: Can-SL501-VH3 S112E / Can-SL501-VL2 (antibody, V domains shown)
VH: B1 VH with Q112E
VL: B1 VL
B7: Can-SL501-VH3 S112D / Can-SL501-VL2 (antibody, V domains shown)
VH: B1 VH with Q112D
VL: B1 VL
B8: Can-SL501-VH3 Q110K / Can-SL501-VL2 (antibody, V domains shown)
VH: B1 VH with Q110K, Q112S
VL: B1 VL
B9: Can-SL501-VH3 Q110E / Can-SL501-VL2 (antibody, V domains shown)
VH: B1 VH with Q110E, Q112S
VL: B1 VL
B10: Can-SL501-VH3 D108R / Can-SL501-VL2 (antibody, V domains shown)
VH: B1 VH with D108R, Q112S
VL: B1 VL
B11: Can-SL501-VH3 Y111E / Can-SL501-VL2 (antibody, V domains shown)
VH: B1 VH with Y111E, Q112S
VL: B1 VL
B12: Can-SL501-VH3 Y111L / Can-SL501-VL2 (antibody, V domains shown)
VH: B1 VH with Y111L, Q112S
VL: B1 VL
B13: Can-SL501-VH3 P109T / Can-SL501-VL2 (antibody, V domains shown)
VH: B1 VH with P109T, Q112S
VL: B1 VL
B14: Can-SL501-VH3 P109A / Can-SL501-VL2 (antibody, V domains shown)
VH: B1 VH with P109A, Q112S
VL: B1 VL
B15: Can-SL501-VH3 Q110N / Can-SL501-VL2 (antibody, V domains shown)
VH: B1 VH with Q110N, Q112S
VL: B1 VL

Tests used:
[1] = target: T1, TGFβ1 (R&D Systems); assay: SPR full titration
T1 construct: also called TGFB1

[2] = target: T1, TGFβ1 (R&D Systems); assay: cell-based or functional assay
[3] = target: T1, TGFβ1 (R&D Systems); assay: single point SPR

T1 sequence (P01137 279-390): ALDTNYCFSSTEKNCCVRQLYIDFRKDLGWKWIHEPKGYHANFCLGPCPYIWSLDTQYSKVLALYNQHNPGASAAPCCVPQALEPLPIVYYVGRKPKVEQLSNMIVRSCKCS

Binder	Kd [1] [nM]	CMVIC pSmad-3, IC50 [2] [nM]	Kd [3] [nM]
B1	0.00909	5.02	4.8
B2	0.0503	4.83	8.01
B3	0.065	43.3	8.04
B4	0.0235	19.6	0.457
B5	0.0308	50.2	0.562
B6	0.0153	5.03	0.487
B7	0.0196	8.78	7
B8	0.111	30.5	5.11
B9	0.0657	6.65	13.5
B10	0.0651	25.2	0.759
B11	0.0238	46.9	4.98
B12	–	32.6	1.11
B13	0.0836	30	0.752
B14	0.135	20.8	1.1
B15	0.0809	8.95	5.64
